The results in this text go back to patent US20210130799.

Holding throughout (test): cleavage_in_vitro
The subject of data set [1] is StCsm6' (Streptococcus thermophilus DGCC8004).
For data set [2], the system named is StCsm6 (Streptococcus thermophilus DGCC8004).
In data set [3] the target is T1, TtCsm6 (Thermus thermophilus) (UniProt Q53W17).
T1 sequence: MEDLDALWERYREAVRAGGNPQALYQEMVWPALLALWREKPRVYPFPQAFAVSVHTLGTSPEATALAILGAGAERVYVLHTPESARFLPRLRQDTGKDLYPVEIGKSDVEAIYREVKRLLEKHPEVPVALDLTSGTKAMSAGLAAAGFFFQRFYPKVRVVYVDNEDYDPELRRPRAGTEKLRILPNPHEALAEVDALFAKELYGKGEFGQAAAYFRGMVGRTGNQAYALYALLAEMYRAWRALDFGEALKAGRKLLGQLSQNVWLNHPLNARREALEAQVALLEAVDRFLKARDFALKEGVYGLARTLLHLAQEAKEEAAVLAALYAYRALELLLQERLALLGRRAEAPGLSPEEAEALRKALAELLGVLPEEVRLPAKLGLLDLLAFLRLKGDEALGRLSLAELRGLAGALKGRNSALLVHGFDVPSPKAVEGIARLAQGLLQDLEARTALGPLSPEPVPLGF
The settings on record: cyclic, 3'-5' linked; c(AMP)4 amount required to activate RNase.

The mark [4] stands for this setting: cyclic, 3'-5' linked, c(AMP)6 amount sufficient to activate RNase on RNA NS.

Take AAAAAA [c(AMP)6]: the values for the activity in data set [1] (setting [4]) and in data set [2] (setting [4]) were 5 nM and 0.5 nM, respectively. AAAA [c(AMP)4] returned an activity in data set [3] of 50 nM.

Take “GGGCGGCAAAUUGAGGAUUUCGUAACUGUUUAAUUCUGUUCACUUAUUCCACCAACAAAAGGUGGCGA [RNA NS]”: the activity in data set [1] (StCsm6' concentration for degradation with cyclic oligoadenylates, 1 uM needed without, 1 mM EDTA, 37 C) is 1 nM; in data set [2] (lowest StCsm6 concentration for degradation with 0.5 uM cyclic oligoadenylate mix, 1 uM needed without, 1 mM EDTA, 37 C) it was 1 nM.
